Assay results reported in paper PMC4466255, “Direct Ionic Regulation of the Activity of Myo-Inositol Biosynthesis Enzymes in Mozambique Tilapia” (PLoS ONE, 2015).

Legend:
MIPS-160 = target: T1, MIPS-160 (Oreochromis mossambicus, UniProt Q1KN76); test: activity with or without NAD+; type: biochemical; conditions: G6P as substrate; 28°C
T1 construct: full-length CDS from seawater-acclimated gill cDNA, pET24a, 6xHis tag kept (C-terminal in Results, amino-terminal in Methods), E. coli Rosetta 2(DE3)pLysS, 61 kDa
T1 sequence (Q1KN76 1-518): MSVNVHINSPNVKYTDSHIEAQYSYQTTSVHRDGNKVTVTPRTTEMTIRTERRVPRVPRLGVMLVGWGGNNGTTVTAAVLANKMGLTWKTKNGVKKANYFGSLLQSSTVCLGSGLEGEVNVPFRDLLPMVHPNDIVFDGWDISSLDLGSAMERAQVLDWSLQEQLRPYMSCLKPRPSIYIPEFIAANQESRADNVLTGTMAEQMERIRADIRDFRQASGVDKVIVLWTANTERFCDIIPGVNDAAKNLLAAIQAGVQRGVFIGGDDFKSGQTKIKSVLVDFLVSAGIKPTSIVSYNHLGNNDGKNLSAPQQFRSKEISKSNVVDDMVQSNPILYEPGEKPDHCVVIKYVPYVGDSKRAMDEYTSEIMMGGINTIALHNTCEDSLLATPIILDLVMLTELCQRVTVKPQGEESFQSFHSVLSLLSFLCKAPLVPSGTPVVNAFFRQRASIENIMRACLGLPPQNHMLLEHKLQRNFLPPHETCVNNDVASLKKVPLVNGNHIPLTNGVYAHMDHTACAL

[1] = substrate: O=P(O)(O)O[C@@H]1[C@@H](O)[C@H](O)[C@@H](O)[C@H](O)[C@@H]1O; test: Pi release, BioMol Green, Michaelis-Menten fit; type: biochemical, Oreochromis mossambicus; conditions: 50 mM Tris-HCl pH 8.2, 50 mM NaCl, 1 mM MgCl2, 28°C, standard buffer IAB, 220 mOsm
From the text: (§1) Pi release, BioMol Green, Michaelis-Menten fit on IMPase 1

[2] = substrate: O=P(O)(O)O[C@@H]1[C@H](O)[C@H](O)[C@@H](O)[C@H](O)[C@H]1O; test: Pi release, BioMol Green, Michaelis-Menten fit; type: biochemical, Oreochromis mossambicus; conditions: 50 mM Tris-HCl pH 8.2, 50 mM NaCl, 1 mM MgCl2, 28°C, standard buffer IAB, 220 mOsm
From the text: as §1

Molecule | activity with or without NAD+ (MIPS-160) | Km [1] [µM] | Vmax [1] [nmol/s] | kcat [1] [s⁻¹] | kcat/Km [1] [M⁻¹ s⁻¹] | Km [2] [µM] | Vmax [2] [nmol/s] | kcat [2] [s⁻¹] | kcat/Km [2] [M⁻¹ s⁻¹]
NC(=O)c1ccc[n+]([C@@H]2O[C@H](COP(=O)(O)OP(=O)(O)OC[C@H]3O[C@@H](n4cnc5c(N)ncnc54)[C@H](O)[C@@H]3O)[C@@H](O)[C@H]2O)c1 [NAD^+] | MIPS-160 activity depends on NAD^+ (Fig 5B) |  |  |  |  |  |  |  | 
IMPase 1 (Oreochromis mossambicus) (protein, full-length CDS from seawater-acclimated gill cDNA, pET24a, 6xHis tag kept (C-terminal in Results, amino-terminal in Methods), E. coli Rosetta 2(DE3)pLysS, 32 kDa) MEDPWQKAYDFAVAVARKAGAEIRKAGESEIRVMTKSSTVDLVTKTDERVEKIIIGSLKEEFGEGTHCFIGEESVAKGEPCILTDKPTWIIDPVDGTTNFVHGFPFVAVSIAFAVNKELEFGVVYSCLEDKMYKARKGKGAFCDNEPIAVSDVKDINRSIIIFEHGTDRSPEKVTKIFFTMQKILCIPVHGLRGSGTAGYKQCLVVIGGSEGVFDIGIHCWDIAAGADIVKEAGGILLDVDGGPFDLMSRRMVSANNETIAKRIIKEIEIFPVVRDDAPIEKK |  | 930 ± 350 | 0.0027 ± 0.0006 | 0.962 ± 0.102 | 1050 ± 200 | 538 ± 74 | 0.0073 ± 0.0007 | 2.585 ± 0.112 | 4800 ± 1100
